From publication PMC3282769, “New Insight into the Transcarbamylase Family: The Structure of Putrescine Transcarbamylase, a Key Catalyst for Fermentative Utilization of Agmatine” (PLoS ONE, 2012)

Molecular target: the molecule itself
Assay: SEC; analytical size exclusion chromatography, Superdex 200HR 5/150 GL, 20 µl of 10 mg/ml protein injected, 24°C, 50 mM Hepes pH 7.5, 0.25 M NaCl; column calibrated with protein standards

Protein	stoichiometry N
Enterococcus faecalis PTC lacking the C-terminal helix (helix 13), amino acids 1-317 (domain or fragment, putrescine transcarbamylase, Enterococcus faecalis SD10 genomic DNA, gene ef0732, amino acids 1-317 followed by a stop codon (stop codon at position 318); Cloned in pNIC28-Bsa4; Most of the protein eluted as hexamers, a small fraction as monomers; also called truncated PTC; Trun; source: E. coli BL21 (DE3) co-transformed with pGroESL, purified (Ni-based chromatography)) not shown	6
putrescine transcarbamylase (PTC) from Enterococcus faecalis, wild type (enzyme, putrescine transcarbamylase, Enterococcus faecalis, gene ef0732, UniProt Q837U7; the final PTC-PAPU model has residues 1 to 340 in each chain; also called wild-type PTC; WT) not shown	3
